Assay results: publication PMC8252264, “Candida albicans and Candida glabrata triosephosphate isomerase – a moonlighting protein that can be exposed on the candidal cell surface and bind to human extracellular matrix proteins” (BMC Microbiology, 2021)

What was measured:
[1] = molecular target: Candida albicans triosephosphate isomerase (Tpi1) (Candida albicans (strain ATCC 10231)) (UniProt Q9P940); experiment: SPR; Biacore 3000, Tpi1 amine-coupled to a CM5 chip (ca. 150 RU), human ECM proteins 50-750 nM injected; 10 mM HEPES, 150 mM NaCl, 0.005 % P20, pH 7.4; 1:1 Langmuir model, global or local fit
[2] = molecular target: Candida glabrata triosephosphate isomerase (Tpi1) (Candida glabrata (strain CBS138, ATCC 2001)) (UniProt Q6FRI3); experiment: as above
[3] = molecular target: T1, human vitronectin (human, UniProt P04004 20-478, biotin (NHS-biotin) in the whole-cell assay only; sulfo-SDAD on amino groups in the cross-linking experiment); experiment: ELISA; microplate-based protein-binding assay: human ECM proteins coated (3 pmoles per well, MaxiSorp, overnight 4 °C), biotin-labelled Tpi1 10-800 nM in PBS, 1.5 h at 37 °C, SA-HRP/TMB detection; apparent KD; details: both partners purified
T1 construct: vitronectin, human; UniProt ID printed for the modelling only (there: vitronectin V65 subunit); No catalogue number printed; also called VTR; source: bought: R&D Systems
T1 sequence (P04004 20-478): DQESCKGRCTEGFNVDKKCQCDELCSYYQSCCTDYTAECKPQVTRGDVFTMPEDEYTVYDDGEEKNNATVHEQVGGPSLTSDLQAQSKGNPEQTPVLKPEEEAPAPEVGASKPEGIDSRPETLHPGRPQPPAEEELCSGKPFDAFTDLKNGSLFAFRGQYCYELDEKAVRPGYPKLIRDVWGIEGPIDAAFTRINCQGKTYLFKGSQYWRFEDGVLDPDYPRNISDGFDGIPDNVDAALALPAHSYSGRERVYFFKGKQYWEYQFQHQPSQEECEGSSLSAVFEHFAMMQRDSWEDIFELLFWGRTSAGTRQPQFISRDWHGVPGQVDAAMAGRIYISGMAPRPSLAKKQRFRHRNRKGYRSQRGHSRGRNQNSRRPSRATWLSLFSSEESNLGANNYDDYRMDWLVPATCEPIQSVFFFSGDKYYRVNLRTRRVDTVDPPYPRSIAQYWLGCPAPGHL

[4] = molecular target: T2, human elastin (human, UniProt P15502 27-786); experiment: SPR; Biacore 3000, Tpi1 amine-coupled to a CM5 chip (ca. 150 RU), human ECM proteins 50-750 nM injected; 10 mM HEPES, 150 mM NaCl, 0.005 % P20, pH 7.4; 1:1 Langmuir model, global or local fit; details: both partners purified
T2 construct: elastin, human; No catalogue number printed; a commercial soluble elastin may be a cross-linked or hydrolysed tissue preparation; source: bought: Sigma-Aldrich
T2 sequence (looked up): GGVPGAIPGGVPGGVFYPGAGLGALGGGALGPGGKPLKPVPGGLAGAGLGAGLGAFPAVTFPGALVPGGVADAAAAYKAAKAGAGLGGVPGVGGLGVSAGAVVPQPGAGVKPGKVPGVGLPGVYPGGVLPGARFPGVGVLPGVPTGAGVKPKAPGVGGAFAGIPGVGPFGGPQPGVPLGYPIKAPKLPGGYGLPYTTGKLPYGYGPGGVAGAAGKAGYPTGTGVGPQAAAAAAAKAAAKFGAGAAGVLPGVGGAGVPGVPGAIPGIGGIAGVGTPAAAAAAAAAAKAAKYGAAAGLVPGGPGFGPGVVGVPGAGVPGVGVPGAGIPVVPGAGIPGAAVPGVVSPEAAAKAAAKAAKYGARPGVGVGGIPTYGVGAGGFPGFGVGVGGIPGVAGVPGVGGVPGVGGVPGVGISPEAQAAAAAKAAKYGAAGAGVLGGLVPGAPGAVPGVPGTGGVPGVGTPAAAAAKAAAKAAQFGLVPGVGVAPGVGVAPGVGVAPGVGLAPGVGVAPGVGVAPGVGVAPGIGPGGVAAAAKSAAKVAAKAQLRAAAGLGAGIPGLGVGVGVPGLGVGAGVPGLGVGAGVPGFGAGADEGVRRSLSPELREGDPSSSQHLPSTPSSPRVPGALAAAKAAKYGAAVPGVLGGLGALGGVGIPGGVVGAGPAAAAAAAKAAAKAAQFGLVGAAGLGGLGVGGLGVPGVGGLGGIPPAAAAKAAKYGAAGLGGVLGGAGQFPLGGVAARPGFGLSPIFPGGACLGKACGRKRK

[5] = molecular target: T1, human vitronectin; experiment: as above; details: both partners purified
[6] = molecular target: human collagen (human); experiment: ELISA; microplate-based protein-binding assay: human ECM proteins coated (3 pmoles per well, MaxiSorp, overnight 4 °C), biotin-labelled Tpi1 10-800 nM in PBS, 1.5 h at 37 °C, SA-HRP/TMB detection; apparent KD
[7] = molecular target: human ECM proteins tested in the microplate-based protein-binding assay (Fig. 5); experiment: as above

human laminin (complex)
Kd [1]: 739 nM | koff [1]: 0.0327 s⁻¹ | kon [1]: 44200 M⁻¹ s⁻¹ | Kd [2]: 253 nM | koff [2]: 0.00339 s⁻¹ | kon [2]: 13400 M⁻¹ s⁻¹

human collagen (natural protein)
Kd [1]: 109 nM | koff [1]: 0.00199 s⁻¹ | kon [1]: 18200 M⁻¹ s⁻¹ | Kd [2]: 214 nM | koff [2]: 0.00308 s⁻¹ | kon [2]: 14400 M⁻¹ s⁻¹

human fibronectin (from UniProt P02751 32-2477) (natural protein)
Kd [1]: 326 nM | koff [1]: 0.0105 s⁻¹ | kon [1]: 32200 M⁻¹ s⁻¹ | Kd [2]: 730 nM | koff [2]: 0.0473 s⁻¹ | kon [2]: 64800 M⁻¹ s⁻¹

B1: Candida albicans triosephosphate isomerase (Tpi1) (enzyme)
chain: MARQFFVGGNFKANGTKQQITSIIDNLNKADLPKDVEVVICPPALYLGLAVEQNKQPTVAIGAQNVFDKSCGAFTGETCASQILDVGASWTLTGHSERRTIIKESDEFIAEKTKFALDTGVKVILCIGETLEERKGGVTLDVCARQLDAVSKIVSDWSNIVVAYEPVWAIGTGLAATPEDAEETHKGIRAHLAKSIGAEQAEKTRILYGGSVNGKNAKDFKDKANVDGFLVGGASLKPEFVDIIKSRL
modifications: biotin (NHS-biotin) in the microplate assays; unlabelled in SPR, cross-linking and on cells
notes: triosephosphate isomerase Tpi1 of Candida albicans, native protein isolated from the cell wall; the UniProt ID is printed for the molecular modelling; Native protein, enzymatically active, no attached sugars found; The strain used (ATCC 10231) may differ from the strain of the UniProt entry; Modelled as a dimer, oligomeric state not measured here; also called C. albicans Tpi1; source: also …
Kd [3]: ~10 nM | Kd [4]: 821 nM | koff [4]: 0.0382 s⁻¹ | kon [4]: 46500 M⁻¹ s⁻¹ | Kd [5]: 86 nM | koff [5]: 0.00877 s⁻¹ | kon [5]: 102000 M⁻¹ s⁻¹

B2: Candida glabrata triosephosphate isomerase (Tpi1) (enzyme)
chain: MARTFFVGGNFKLNGTKKSIKEIVDRLNTASLPENVEVVICPPATYLDYTVSLVSKKQVTVGGQNTYTKASGAYTGENSVDQLKDVGAKWVILGHSERRTYFHEDDKIVAEKTKFALDQGLGVILCIGETLEEKKAGVTLKVVERQLDAVIAEVKDWTNVVIAYEPVWAIGTGLAATAEDAQDIHHSIRSYLAEKLGKDTAEKTRILYGGSANGANAGTFKDKADVDGFLVGGASLKPEFVDIINSRN
modifications: biotin (NHS-biotin) in the microplate assay; unlabelled in SPR and on cells
notes: triosephosphate isomerase Tpi1 of Candida glabrata, native protein isolated from the cell wall; identifier not given; Native protein, enzymatically active, no attached sugars found; also called C. glabrata Tpi1; source: also endogenous, on live C. glabrata cells
Kd [6]: 1000 nM | Kd [7]: 100 nM | Kd [4]: 20.1 nM | koff [4]: 0.00191 s⁻¹ | kon [4]: 95100 M⁻¹ s⁻¹ | Kd [5]: 168 nM | koff [5]: 0.0031 s⁻¹ | kon [5]: 18400 M⁻¹ s⁻¹
